# In patent publication US20260001928A1 (CORTERIA PHARMACEUTICALS, priority 2022, published 2026):
# *1 amine or outer side, *2 acyl side, *3 side chain or, on linkers, in order; H or OH if unused. Where no end group is shown, it is not given here. Side-chain parts run from the residue outwards. [ ]: non-standard residue; d: D form. The star is where a group is joined. C20 diacid = O=C(O)CCCCCCCCCCCCCCCCCCC(=O)*; C16 diacid = O=C(O)CCCCCCCCCCCCCCC(=O)*; γGlu = O=C(O)[C@H](CCC(=O)[*:2])N[*:1]; NMeI = CC[C@H](C)[C@H](NC)C(=O)O; AEEA = NCCOCCOCC(=O)O; Aib = CC(C)(N)C(=O)O
# Target: human corticotropin-releasing factor 2a (CRF2a receptor) (human), Q13324
# Sequence (Q13324 20-411): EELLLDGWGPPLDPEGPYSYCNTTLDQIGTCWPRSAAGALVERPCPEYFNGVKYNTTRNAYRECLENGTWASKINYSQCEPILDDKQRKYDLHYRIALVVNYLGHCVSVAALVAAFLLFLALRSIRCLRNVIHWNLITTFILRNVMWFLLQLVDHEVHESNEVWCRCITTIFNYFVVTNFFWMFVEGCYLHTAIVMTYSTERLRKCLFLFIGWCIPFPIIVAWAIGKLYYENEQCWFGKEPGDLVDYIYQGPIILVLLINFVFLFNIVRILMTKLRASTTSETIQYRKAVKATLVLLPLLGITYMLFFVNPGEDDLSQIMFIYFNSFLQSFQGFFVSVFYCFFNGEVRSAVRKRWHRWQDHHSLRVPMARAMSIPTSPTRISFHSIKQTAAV
# Assay: cell-based or functional assay
row,Binder,EC50 [nM] (cAMP)
1,Ac-IVLSLD[dV]PIKLK([γGlu-γGlu-C20 diacid])KILLEQEKQKEQREQAETN[Aib]QILAQV-NH2 (SMILES CC[C@H](C)[C@H](NC(C)=O)C(=O)N[C@H](C(=O)N[C@@H](CC(C)C)C(=O)N[C@@H](CO)C(=O)N[C@@H](CC(C)C)C(=O)N[C@@H](CC(=O)O)C(=O)N[C@@H](C(=O)N1CCC[C@H]1C(=O)N[C@H](C(=O)N[C@@H](CCCCN)C(=O)N[C@@H](CC(C)C)C(=O)N[C@@H](CCCCNC(=O)CC[C@H](NC(=O)CC[C@H](NC(=O)CCCCCCCCCCCCCCCCCCC(=O)O)C(=O)O)C(=O)O)C(=O)N[C@@H](CCCCN)C(=O)N[C@H](C(=O)N[C@@H](CC(C)C)C(=O)N[C@@H](CC(C)C)C(=O)N[C@@H](CCC(=O)O)C(=O)N[C@@H](CCC(N)=O)C(=O)N[C@@H](CCC(=O)O)C(=O)N[C@@H](CCCCN)C(=O)N[C@@H](CCC(N)=O)C(=O)N[C@@H](CCCCN)C(=O)N[C@@H](CCC(=O)O)C(=O)N[C@@H](CCC(N)=O)C(=O)N[C@@H](CCCNC(=N)N)C(=O)N[C@@H](CCC(=O)O)C(=O)N[C@@H](CCC(N)=O)C(=O)N[C@@H](C)C(=O)N[C@@H](CCC(=O)O)C(=O)N[C@H](C(=O)N[C@@H](CC(N)=O)C(=O)NC(C)(C)C(=O)N[C@@H](CCC(N)=O)C(=O)N[C@H](C(=O)N[C@@H](CC(C)C)C(=O)N[C@@H](C)C(=O)N[C@@H](CCC(N)=O)C(=O)N[C@H](C(N)=O)C(C)C)[C@@H](C)CC)[C@@H](C)O)[C@@H](C)CC)[C@@H](C)CC)C(C)C)C(C)C) [SEQ ID NO 241],0.56
2,[NMeI]VLSLD[dV]PIKLK([γGlu-γGlu-C20 diacid])KILLEQEKQKEQREQAETN[Aib]QILAQV-NH2 (N-terminus assumed; SMILES CC[C@H](C)[C@H](NC)C(=O)N[C@H](C(=O)N[C@@H](CC(C)C)C(=O)N[C@@H](CO)C(=O)N[C@@H](CC(C)C)C(=O)N[C@@H](CC(=O)O)C(=O)N[C@@H](C(=O)N1CCC[C@H]1C(=O)N[C@H](C(=O)N[C@@H](CCCCN)C(=O)N[C@@H](CC(C)C)C(=O)N[C@@H](CCCCNC(=O)CC[C@H](NC(=O)CC[C@H](NC(=O)CCCCCCCCCCCCCCCCCCC(=O)O)C(=O)O)C(=O)O)C(=O)N[C@@H](CCCCN)C(=O)N[C@H](C(=O)N[C@@H](CC(C)C)C(=O)N[C@@H](CC(C)C)C(=O)N[C@@H](CCC(=O)O)C(=O)N[C@@H](CCC(N)=O)C(=O)N[C@@H](CCC(=O)O)C(=O)N[C@@H](CCCCN)C(=O)N[C@@H](CCC(N)=O)C(=O)N[C@@H](CCCCN)C(=O)N[C@@H](CCC(=O)O)C(=O)N[C@@H](CCC(N)=O)C(=O)N[C@@H](CCCNC(=N)N)C(=O)N[C@@H](CCC(=O)O)C(=O)N[C@@H](CCC(N)=O)C(=O)N[C@@H](C)C(=O)N[C@@H](CCC(=O)O)C(=O)N[C@H](C(=O)N[C@@H](CC(N)=O)C(=O)NC(C)(C)C(=O)N[C@@H](CCC(N)=O)C(=O)N[C@H](C(=O)N[C@@H](CC(C)C)C(=O)N[C@@H](C)C(=O)N[C@@H](CCC(N)=O)C(=O)N[C@H](C(N)=O)C(C)C)[C@@H](C)CC)[C@@H](C)O)[C@@H](C)CC)[C@@H](C)CC)C(C)C)C(C)C) [SEQ ID NO 242],0.22
3,Ac-IVLSLD[dV]PIKLK([γGlu-γGlu-C20 diacid])KILLEQEKQKAQREQAETN[Aib]QILAQV-NH2 (SMILES CC[C@H](C)[C@H](NC(C)=O)C(=O)N[C@H](C(=O)N[C@@H](CC(C)C)C(=O)N[C@@H](CO)C(=O)N[C@@H](CC(C)C)C(=O)N[C@@H](CC(=O)O)C(=O)N[C@@H](C(=O)N1CCC[C@H]1C(=O)N[C@H](C(=O)N[C@@H](CCCCN)C(=O)N[C@@H](CC(C)C)C(=O)N[C@@H](CCCCNC(=O)CC[C@H](NC(=O)CC[C@H](NC(=O)CCCCCCCCCCCCCCCCCCC(=O)O)C(=O)O)C(=O)O)C(=O)N[C@@H](CCCCN)C(=O)N[C@H](C(=O)N[C@@H](CC(C)C)C(=O)N[C@@H](CC(C)C)C(=O)N[C@@H](CCC(=O)O)C(=O)N[C@@H](CCC(N)=O)C(=O)N[C@@H](CCC(=O)O)C(=O)N[C@@H](CCCCN)C(=O)N[C@@H](CCC(N)=O)C(=O)N[C@@H](CCCCN)C(=O)N[C@@H](C)C(=O)N[C@@H](CCC(N)=O)C(=O)N[C@@H](CCCNC(=N)N)C(=O)N[C@@H](CCC(=O)O)C(=O)N[C@@H](CCC(N)=O)C(=O)N[C@@H](C)C(=O)N[C@@H](CCC(=O)O)C(=O)N[C@H](C(=O)N[C@@H](CC(N)=O)C(=O)NC(C)(C)C(=O)N[C@@H](CCC(N)=O)C(=O)N[C@H](C(=O)N[C@@H](CC(C)C)C(=O)N[C@@H](C)C(=O)N[C@@H](CCC(N)=O)C(=O)N[C@H](C(N)=O)C(C)C)[C@@H](C)CC)[C@@H](C)O)[C@@H](C)CC)[C@@H](C)CC)C(C)C)C(C)C) [SEQ ID NO 244],0.28

# The next lines start with the values.
row,EC50 [nM] (cAMP),Binder
1,0.22,Ac-IVLSLD[dV]PIKLK([AEEA-AEEA-γGlu-C20 diacid])KILLEQEKQKAQREQAETN[Aib]QILAQV-NH2 (SMILES CC[C@H](C)[C@H](NC(C)=O)C(=O)N[C@H](C(=O)N[C@@H](CC(C)C)C(=O)N[C@@H](CO)C(=O)N[C@@H](CC(C)C)C(=O)N[C@@H](CC(=O)O)C(=O)N[C@@H](C(=O)N1CCC[C@H]1C(=O)N[C@H](C(=O)N[C@@H](CCCCN)C(=O)N[C@@H](CC(C)C)C(=O)N[C@@H](CCCCNC(=O)COCCOCCNC(=O)COCCOCCNC(=O)CC[C@H](NC(=O)CCCCCCCCCCCCCCCCCCC(=O)O)C(=O)O)C(=O)N[C@@H](CCCCN)C(=O)N[C@H](C(=O)N[C@@H](CC(C)C)C(=O)N[C@@H](CC(C)C)C(=O)N[C@@H](CCC(=O)O)C(=O)N[C@@H](CCC(N)=O)C(=O)N[C@@H](CCC(=O)O)C(=O)N[C@@H](CCCCN)C(=O)N[C@@H](CCC(N)=O)C(=O)N[C@@H](CCCCN)C(=O)N[C@@H](C)C(=O)N[C@@H](CCC(N)=O)C(=O)N[C@@H](CCCNC(=N)N)C(=O)N[C@@H](CCC(=O)O)C(=O)N[C@@H](CCC(N)=O)C(=O)N[C@@H](C)C(=O)N[C@@H](CCC(=O)O)C(=O)N[C@H](C(=O)N[C@@H](CC(N)=O)C(=O)NC(C)(C)C(=O)N[C@@H](CCC(N)=O)C(=O)N[C@H](C(=O)N[C@@H](CC(C)C)C(=O)N[C@@H](C)C(=O)N[C@@H](CCC(N)=O)C(=O)N[C@H](C(N)=O)C(C)C)[C@@H](C)CC)[C@@H](C)O)[C@@H](C)CC)[C@@H](C)CC)C(C)C)C(C)C) [SEQ ID NO 240]
2,0.13,Ac-IVLSLD[dV]PIKLK([γGlu-γGlu-C20 diacid])KILLEQEKQKKQREQAETN[Aib]QILAQV-NH2 (SMILES CC[C@H](C)[C@H](NC(C)=O)C(=O)N[C@H](C(=O)N[C@@H](CC(C)C)C(=O)N[C@@H](CO)C(=O)N[C@@H](CC(C)C)C(=O)N[C@@H](CC(=O)O)C(=O)N[C@@H](C(=O)N1CCC[C@H]1C(=O)N[C@H](C(=O)N[C@@H](CCCCN)C(=O)N[C@@H](CC(C)C)C(=O)N[C@@H](CCCCNC(=O)CC[C@H](NC(=O)CC[C@H](NC(=O)CCCCCCCCCCCCCCCCCCC(=O)O)C(=O)O)C(=O)O)C(=O)N[C@@H](CCCCN)C(=O)N[C@H](C(=O)N[C@@H](CC(C)C)C(=O)N[C@@H](CC(C)C)C(=O)N[C@@H](CCC(=O)O)C(=O)N[C@@H](CCC(N)=O)C(=O)N[C@@H](CCC(=O)O)C(=O)N[C@@H](CCCCN)C(=O)N[C@@H](CCC(N)=O)C(=O)N[C@@H](CCCCN)C(=O)N[C@@H](CCCCN)C(=O)N[C@@H](CCC(N)=O)C(=O)N[C@@H](CCCNC(=N)N)C(=O)N[C@@H](CCC(=O)O)C(=O)N[C@@H](CCC(N)=O)C(=O)N[C@@H](C)C(=O)N[C@@H](CCC(=O)O)C(=O)N[C@H](C(=O)N[C@@H](CC(N)=O)C(=O)NC(C)(C)C(=O)N[C@@H](CCC(N)=O)C(=O)N[C@H](C(=O)N[C@@H](CC(C)C)C(=O)N[C@@H](C)C(=O)N[C@@H](CCC(N)=O)C(=O)N[C@H](C(N)=O)C(C)C)[C@@H](C)CC)[C@@H](C)O)[C@@H](C)CC)[C@@H](C)CC)C(C)C)C(C)C) [SEQ ID NO 243]
3,1.61,H-VLSLD[dV]PIKLK([γGlu-C16 diacid])KILLEQEKQKKQREQAETNKQILAQV-NH2 (SMILES CC[C@H](C)[C@H](NC(=O)[C@H](CCC(N)=O)NC(=O)[C@H](CCCCN)NC(=O)[C@H](CC(N)=O)NC(=O)[C@@H](NC(=O)[C@H](CCC(=O)O)NC(=O)[C@H](C)NC(=O)[C@H](CCC(N)=O)NC(=O)[C@H](CCC(=O)O)NC(=O)[C@H](CCCNC(=N)N)NC(=O)[C@H](CCC(N)=O)NC(=O)[C@H](CCCCN)NC(=O)[C@H](CCCCN)NC(=O)[C@H](CCC(N)=O)NC(=O)[C@H](CCCCN)NC(=O)[C@H](CCC(=O)O)NC(=O)[C@H](CCC(N)=O)NC(=O)[C@H](CCC(=O)O)NC(=O)[C@H](CC(C)C)NC(=O)[C@H](CC(C)C)NC(=O)[C@@H](NC(=O)[C@H](CCCCN)NC(=O)[C@H](CCCCNC(=O)CC[C@H](NC(=O)CCCCCCCCCCCCCCC(=O)O)C(=O)O)NC(=O)[C@H](CC(C)C)NC(=O)[C@H](CCCCN)NC(=O)[C@@H](NC(=O)[C@@H]1CCCN1C(=O)[C@H](NC(=O)[C@H](CC(=O)O)NC(=O)[C@H](CC(C)C)NC(=O)[C@H](CO)NC(=O)[C@H](CC(C)C)NC(=O)[C@@H](N)C(C)C)C(C)C)[C@@H](C)CC)[C@@H](C)CC)[C@@H](C)O)C(=O)N[C@@H](CC(C)C)C(=O)N[C@@H](C)C(=O)N[C@@H](CCC(N)=O)C(=O)N[C@H](C(N)=O)C(C)C) [SEQ ID NO 34]
